In PMC6532066 (Nature, 2019):
Like-named read-outs stand apart in the source and are kept apart here.

T1: LptF (E. coli K-12, UniProt P0AF98)
T1 sequence: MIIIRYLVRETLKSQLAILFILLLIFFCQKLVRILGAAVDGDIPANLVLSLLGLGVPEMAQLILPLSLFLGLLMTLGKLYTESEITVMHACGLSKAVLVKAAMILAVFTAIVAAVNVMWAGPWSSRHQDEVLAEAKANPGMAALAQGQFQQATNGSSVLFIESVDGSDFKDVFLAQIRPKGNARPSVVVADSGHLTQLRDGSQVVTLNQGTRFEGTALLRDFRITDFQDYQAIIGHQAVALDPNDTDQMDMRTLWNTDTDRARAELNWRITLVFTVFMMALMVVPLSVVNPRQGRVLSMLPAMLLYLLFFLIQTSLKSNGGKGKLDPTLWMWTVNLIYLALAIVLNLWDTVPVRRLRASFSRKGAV

T2: LptG (E. coli K-12, UniProt P0ADC6)
T2 sequence: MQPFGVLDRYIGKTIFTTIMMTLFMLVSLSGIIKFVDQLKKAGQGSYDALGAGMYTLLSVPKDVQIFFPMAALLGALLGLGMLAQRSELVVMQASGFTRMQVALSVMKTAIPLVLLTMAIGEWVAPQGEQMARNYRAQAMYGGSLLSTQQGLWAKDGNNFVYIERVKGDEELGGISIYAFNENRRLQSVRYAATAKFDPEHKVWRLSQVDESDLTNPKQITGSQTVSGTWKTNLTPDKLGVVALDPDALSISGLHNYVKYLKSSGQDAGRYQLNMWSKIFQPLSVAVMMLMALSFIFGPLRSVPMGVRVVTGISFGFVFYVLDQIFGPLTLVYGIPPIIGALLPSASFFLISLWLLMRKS


Legend:
Assay in all cases: cryo-EM structure
LptF [1] = molecular target: T1, LptF
LptG = molecular target: T2, LptG
LptF [2] = molecular target: T1, LptF; remark: listed apart in the source

Row | binding result (LptF [1]) | binding result (LptG) | binding result (LptF [2]) | Binder
1 | binds | binds | – | LptB (natural protein) MATLTAKNLAKAYKGRRVVEDVSLTVNSGEIVGLLGPNGAGKTTTFYMVVGIVPRDAGNIIIDDDDISLLPLHARARRGIGYLPQEASIFRRLSVYDNLMAVLQIRDDLSAEQREDRANELMEEFHIEHLRDSMGQSLSGGERRRVEIARALAANPKFILLDEPFAGVDPISVIDIKRIIEHLRDSGLGVLITDHNVRETLAVCERAYIVSQGHLIAHGTPTEILQDEHVKRVYLGEDFRL
2 | – | – | binds | LptC (natural protein) MSKARRWVIIVLSLAVLVMIGINMAEKDDTAQVVVNNNDPTYKSEHTDTLVYNPEGALSYRLIAQHVEYYSDQAVSWFTQPVLTTFDKDKIPTWSVKADKAKLTNDRMLYLYGHVEVNALVPDSQLRRITTDNAQINLVTQDVTSEDLVTLYGTTFNSSGLKMRGNLRSKNAELIEKVRTSYEIQNKQTQP
